Ratio to parent data for 4 variants are collected here from article PMC4463457.

The labels stand for the following.
B1: VSV-SNAP-hD3 (VSV- and SNAP-tagged human dopamine D3 receptor) [modified: SNAP tag covalently labelled with SNAP-Lumi4-Tb or SNAP-Red; SNAP tag covalently labelled with SNAP-Lumi4-Tb or SNAP-Red] [human] / … (parent)
chain: MASLSQLSGHLNYTCGAENSTGASQARPHAYYALSYCALILAIVFGNGLVCMAVLKERALQTTTNYLVVSLAVADLLVATLVMPWVVYLEVTGGVWNFSRICCDVFVTLDVMMCTASILNLCAISIDRYTAVVMPVHYQHGTGQSSCRRVALMITAVWVLAFAVSCPLLFGFNTTGDPTVCSISNPDFVIYSSVVSFYLPFGVTVLVYARIYVVLKQRRRKRILTRQNSQCNSVRPGFPQQTLSPDPAHLELKRYYSICQDTALGGPGFQERGGELKREEKTRNSLSPTIAPKLSLEVRKLSNGRLSTSLKLGPLQPRGVPLREKKATQMVAIVLGAFIVCWLPFFLTHVLNTHCQTCHVSPELYSATTWLGYVNSALNPVIYTTFNIEFRKAFLKILSC

Variants of B1 are the subject of the assay. Put plainly: htrFRET. As to conditions: with itself; HEK293T cells transfected with increasing amounts of construct; read off a plot.
Consider chain 1 Y31A Y32A L34A S35A, for which the ratio to parent was 1.
As for chain 1 D187A I190A V194A L199A, the figure is 0.89; as for chain 1 F394A L395A K396A, 0.5.
chain 1 R210A Y212A V213A K216A: the ratio to parent worked out at 0.76.
